Nine molecules from patent US20250161478A1 (GLYKOS FINLAND, published 2025) can be followed below.

Where two headings read alike, the source gives them in different places.

Assay in all cases: cell-based or functional assay
In test [1] the target is T1, TYRP1 antigen on human melanoma cells (IGR-1, SK-MEL-30, SK-MEL-28) (human, UniProt P17643 25-537).
In test [2] the target is T2, CD33 on leukemia cell lines (HL-60, MOLM-13, KG-1, K-562) (UniProt P20138 18-364, limits assumed).
Test [3] deals with T2, CD33 on leukemia cell lines (HL-60, …). The source holds these as a separate data set.
Test [4] addresses T1, TYRP1 antigen on human melanoma cells …. The source holds these as a separate data set.
The target is the same in test [5]. The source holds these as a separate data set.
For test [6] the target is unchanged. The source holds these as a separate data set.
For test [7] the target is unchanged. This is another data set of the same source.
Test [8] has the same target. The source holds these as a separate data set.
The target in test [9] is T2, CD33 on leukemia cell lines (HL-60, …). This is another data set of the same source.

T2 sequence (P20138 18-364 limits assumed): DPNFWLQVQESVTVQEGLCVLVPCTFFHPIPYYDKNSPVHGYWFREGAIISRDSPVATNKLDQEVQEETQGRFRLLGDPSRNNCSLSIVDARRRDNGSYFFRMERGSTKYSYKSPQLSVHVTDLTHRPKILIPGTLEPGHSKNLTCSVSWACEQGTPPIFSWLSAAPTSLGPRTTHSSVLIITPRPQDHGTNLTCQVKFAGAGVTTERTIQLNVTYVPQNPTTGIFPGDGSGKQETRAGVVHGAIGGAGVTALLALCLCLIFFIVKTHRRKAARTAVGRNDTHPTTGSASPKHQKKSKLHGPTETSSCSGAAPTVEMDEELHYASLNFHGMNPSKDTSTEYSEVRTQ

B1: FLCPeMala (cysteine engineered flanvotumab HC N299C conjugated with MA-Ac-β-Ala-EDA-PNU), DAR 2.0 (antibody, human IgG1, kappa)
heavy: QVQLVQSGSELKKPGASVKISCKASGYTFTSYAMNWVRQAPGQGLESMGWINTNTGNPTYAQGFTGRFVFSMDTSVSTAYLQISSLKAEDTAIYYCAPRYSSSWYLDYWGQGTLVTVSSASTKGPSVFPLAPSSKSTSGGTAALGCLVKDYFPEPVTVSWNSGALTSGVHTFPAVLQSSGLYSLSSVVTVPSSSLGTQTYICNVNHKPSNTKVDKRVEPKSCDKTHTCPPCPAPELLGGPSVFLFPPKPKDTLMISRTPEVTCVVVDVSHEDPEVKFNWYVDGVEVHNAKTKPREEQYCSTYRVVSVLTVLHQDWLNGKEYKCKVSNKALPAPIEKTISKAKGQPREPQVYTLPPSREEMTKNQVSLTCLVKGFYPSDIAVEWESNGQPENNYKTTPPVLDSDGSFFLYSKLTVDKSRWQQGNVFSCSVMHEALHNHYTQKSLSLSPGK
light: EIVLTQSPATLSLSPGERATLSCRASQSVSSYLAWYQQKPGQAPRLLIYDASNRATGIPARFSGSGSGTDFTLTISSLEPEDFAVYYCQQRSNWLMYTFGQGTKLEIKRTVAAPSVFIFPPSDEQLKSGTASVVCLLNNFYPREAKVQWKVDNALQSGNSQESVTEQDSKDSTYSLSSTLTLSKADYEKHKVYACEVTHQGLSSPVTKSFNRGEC
modifications: PeMala linker-payload (maleimidoacetyl-β-Ala-EDA-PNU) on the engineered cysteine (N299C); DAR 2.0
Regarding B1, the “IC50, cell viability (PrestoBlue), IGR-1 cells” value (from here on “IC50 … IGR-1 cells”) in test [1] was 0.649 nM.

B2: LNCAuM (cysteine engineered lintuzumab HC N296C-maleimidoacetyl-β-Ala-Val-Ser(Glc)-PAB-MMAU), DAR 1.7 (antibody, human IgG1, kappa, V domains shown)
VH: QVQLVQSGAEVKKPGSSVKVSCKASGYTFTDYNMHWVRQAPGQGLEWIGYIYPYNGGTGYNQKFKSKATITADESTNTAYMELSSLRSEDTAVYYCARGRPAMDYWGQGTLVTVSS
VL: DIQMTQSPSSLSASVGDRVTITCRASESVDNYGISFMNWFQQKPGKAPKLLIYAASNQGSGVPSRFSGSGSGTDFTLTISSLQPDDFATYYCQQSKEVPWTFGQGTKVEIKR
modifications: AuM linker-payload (maleimidoacetyl-β-Ala-Val-Ser(Glc)-PAB-MMAU) on the engineered cysteine (N296C); DAR 1.7
Consider B2, for which the “IC50, cytotoxicity, HL-60 cells, 5 days” value in test [2] is 16 nM.

B3: LNCAuMb (cysteine engineered lintuzumab HC N296C conjugated with branched N-MAL-N-bis(Peg2)-Val-Ser(Glc)-PAB-MMAU), DAR 3.3 (antibody, human IgG1, kappa, V domains shown)
VH: QVQLVQSGAEVKKPGSSVKVSCKASGYTFTDYNMHWVRQAPGQGLEWIGYIYPYNGGTGYNQKFKSKATITADESTNTAYMELSSLRSEDTAVYYCARGRPAMDYWGQGTLVTVSS
VL: DIQMTQSPSSLSASVGDRVTITCRASESVDNYGISFMNWFQQKPGKAPKLLIYAASNQGSGVPSRFSGSGSGTDFTLTISSLQPDDFATYYCQQSKEVPWTFGQGTKVEIKR
modifications: branched AuMb linker-payload (N-MAL-N-bis(Peg2)-Val-Ser(Glc)-PAB-MMAU) on the engineered cysteine (N296C); DAR 3.3
Turning to B3, the “IC50, cytotoxicity, HL-60 cells, 5 days” value in test [3] came to 2.2 nM.

B4: FLCPeMcv (cysteine engineered flanvotumab HC N299C conjugated with MA-caproyl-Val-Cit-PAB-EDA-PNU), DAR 1.4 (antibody, human IgG1, kappa)
heavy: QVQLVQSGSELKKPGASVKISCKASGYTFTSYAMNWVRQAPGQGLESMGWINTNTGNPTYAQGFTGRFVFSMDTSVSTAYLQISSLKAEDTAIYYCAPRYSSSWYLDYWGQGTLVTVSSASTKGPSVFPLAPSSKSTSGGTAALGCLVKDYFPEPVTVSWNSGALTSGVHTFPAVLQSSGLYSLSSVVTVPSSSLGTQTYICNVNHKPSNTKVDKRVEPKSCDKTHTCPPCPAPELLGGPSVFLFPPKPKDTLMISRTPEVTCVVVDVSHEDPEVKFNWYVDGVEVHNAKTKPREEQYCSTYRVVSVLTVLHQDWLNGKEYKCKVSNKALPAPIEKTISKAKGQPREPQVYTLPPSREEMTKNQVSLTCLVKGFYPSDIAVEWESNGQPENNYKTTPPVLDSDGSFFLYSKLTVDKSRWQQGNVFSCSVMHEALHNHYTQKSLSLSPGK
light: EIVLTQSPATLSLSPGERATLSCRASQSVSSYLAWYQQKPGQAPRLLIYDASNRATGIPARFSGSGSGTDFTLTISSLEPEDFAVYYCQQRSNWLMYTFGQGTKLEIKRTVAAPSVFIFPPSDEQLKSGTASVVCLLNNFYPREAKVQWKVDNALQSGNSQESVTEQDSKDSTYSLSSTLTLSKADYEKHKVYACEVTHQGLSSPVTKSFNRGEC
modifications: PeMcv linker-payload (MA-caproyl-Val-Cit-PAB-EDA-PNU) on the engineered cysteine (N299C); DAR 1.4
For the molecule B4, in test [4], the “IC50 … IGR-1 cells” value was in the range of 0.414 to 0.716 nM and the “IC50, cell viability (PrestoBlue), SK-MEL-30 cells” value (“IC50 … SK-MEL-30 cells” below) lay within 2.8 to 4 nM.

B5: CHPeD (glycoconjugated chimeric TA99-DBCO-Val-Ser(GlcA)-EDA-PNU ADC), DAR 2 (antibody, human IgG1, kappa, V domains shown)
VH: EVQLQQSGAELVRPGALVKLSCKTSGFNIKDYFLHWVRQRPDQGLEWIGWINPDNGNTVYDPKFQGTASLTADTSSNTVYLQLSGLTSEDTAVYFCTRRDYTYEKAALDYWGQGTTVTVST
VL: IQMSQSPASLSASVGETVTITCRASGNIYNYLAWYQQKQGKSPHLLVYDAKTLADGVPSRFSGSGSGTQYSLKISSLQTEDSGNYYCQHFWSLPFTFGSGTKLEIKR
modifications: DBCO-Val-Ser(GlcA)-EDA-PNU on GalNAz of the trimmed Fc N-glycan; DAR 2
Turning to B5, in test [5], the “IC50 … IGR-1 cells” value amounted to 1.4 nM; the “IC50, cell viability (PrestoBlue), SK-MEL-28 cells” value came out at 55 nM; the “IC50 … SK-MEL-30 cells” value stood at 5.7 nM.

B6: CHAuM (chimeric TA99-maleimidoacetyl-β-Ala-Val-Ser(Glc)-PAB-MMAU), DAR 6 (antibody, human IgG1, kappa, V domains shown)
VH: EVQLQQSGAELVRPGALVKLSCKTSGFNIKDYFLHWVRQRPDQGLEWIGWINPDNGNTVYDPKFQGTASLTADTSSNTVYLQLSGLTSEDTAVYFCTRRDYTYEKAALDYWGQGTTVTVST
VL: IQMSQSPASLSASVGETVTITCRASGNIYNYLAWYQQKQGKSPHLLVYDAKTLADGVPSRFSGSGSGTQYSLKISSLQTEDSGNYYCQHFWSLPFTFGSGTKLEIKR
modifications: AuM linker-payload on reduced interchain cysteine; AuM linker-payload (maleimidoacetyl-β-Ala-Val-Ser(Glc)-PAB-MMAU) on reduced interchain cysteines; DAR 6 in all
For the molecule B6, in test [6], the “IC50 … IGR-1 cells” value turned out to be 2.2 nM; the “IC50, cell viability (PrestoBlue), SK-MEL-28 cells” value is greater than 300 nM; the “IC50 … SK-MEL-30 cells” value came out at 48 nM.

B7: FLCPeMg (cysteine engineered flanvotumab HC N299C conjugated with MA-Ac-β-Ala-VS(GlcA)-EDA-PNU), DAR 2.2 (antibody, human IgG1, kappa)
heavy: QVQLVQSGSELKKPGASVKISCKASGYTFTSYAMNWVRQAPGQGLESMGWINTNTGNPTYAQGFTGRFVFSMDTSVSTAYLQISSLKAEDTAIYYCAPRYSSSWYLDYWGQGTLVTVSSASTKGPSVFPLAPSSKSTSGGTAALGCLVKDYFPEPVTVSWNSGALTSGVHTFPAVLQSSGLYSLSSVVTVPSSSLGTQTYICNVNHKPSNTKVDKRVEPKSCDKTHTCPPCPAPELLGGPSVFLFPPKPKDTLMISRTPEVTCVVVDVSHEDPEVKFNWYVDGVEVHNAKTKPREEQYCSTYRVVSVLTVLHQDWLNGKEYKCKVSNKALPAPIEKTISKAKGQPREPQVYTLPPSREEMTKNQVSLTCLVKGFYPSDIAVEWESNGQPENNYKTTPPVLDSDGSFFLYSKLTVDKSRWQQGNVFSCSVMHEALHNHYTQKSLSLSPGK
light: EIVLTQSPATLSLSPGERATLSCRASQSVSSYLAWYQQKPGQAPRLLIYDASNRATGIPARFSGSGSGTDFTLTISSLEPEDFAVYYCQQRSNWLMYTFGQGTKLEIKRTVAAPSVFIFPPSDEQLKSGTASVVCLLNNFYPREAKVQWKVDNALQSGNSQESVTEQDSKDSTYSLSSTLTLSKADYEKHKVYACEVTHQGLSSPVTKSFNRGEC
modifications: PeMg linker-payload (maleimidoacetyl-β-Ala-Val-Ser(GlcA)-EDA-PNU) on the engineered cysteine (N299C); DAR 2.2
Turning to B7, in test [7], the “IC50 … IGR-1 cells” value was 0.417 to 0.484 nM and the “IC50 … SK-MEL-30 cells” value was in the range of 4.3 to 10 nM.

B8: FLCPeMa (cysteine engineered flanvotumab HC N299C conjugated with MA-Ac-EDA-PNU), DAR 1.7 (antibody, human IgG1, kappa)
heavy: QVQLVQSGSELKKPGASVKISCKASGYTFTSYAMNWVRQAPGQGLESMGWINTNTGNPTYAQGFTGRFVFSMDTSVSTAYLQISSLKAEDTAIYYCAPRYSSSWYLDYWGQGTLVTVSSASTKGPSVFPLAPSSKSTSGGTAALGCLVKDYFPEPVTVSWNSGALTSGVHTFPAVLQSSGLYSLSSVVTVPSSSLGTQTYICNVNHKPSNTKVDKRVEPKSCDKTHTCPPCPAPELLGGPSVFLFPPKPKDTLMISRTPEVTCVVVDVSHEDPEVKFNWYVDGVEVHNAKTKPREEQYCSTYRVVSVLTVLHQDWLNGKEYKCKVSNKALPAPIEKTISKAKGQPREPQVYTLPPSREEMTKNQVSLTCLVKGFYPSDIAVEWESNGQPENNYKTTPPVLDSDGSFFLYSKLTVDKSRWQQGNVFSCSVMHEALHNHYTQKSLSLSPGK
light: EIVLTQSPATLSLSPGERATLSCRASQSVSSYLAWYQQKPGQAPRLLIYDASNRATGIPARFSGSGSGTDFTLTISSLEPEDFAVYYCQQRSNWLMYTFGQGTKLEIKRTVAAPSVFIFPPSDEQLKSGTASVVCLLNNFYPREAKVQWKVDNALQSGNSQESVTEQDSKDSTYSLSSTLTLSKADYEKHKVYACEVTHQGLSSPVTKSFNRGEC
modifications: PeMa linker-payload (maleimidoacetyl-EDA-PNU) on the engineered cysteine (N299C); DAR 1.7
As to B8, in [8], the “IC50 … IGR-1 cells” value was 1.2 nM and the “IC50 … SK-MEL-30 cells” value was 22 nM.

B9: GMAuM (gemtuzumab-maleimidoacetyl-β-Ala-Val-Ser(Glc)-PAB-MMAU), DAR 8 (antibody, human IgG4 S228P, kappa, V domains shown)
VH: EVQLVQSGAEVKKPGSSVKVSCKASGYTITDSNIHWVRQAPGQSLEWIGYIYPYNGGTDYNQKFKNRATLTVDNPTNTAYMELSSLRSEDTAFYYCVNGNPWLAYWGQGTLVTVSS
VL: DIQLTQSPSTLSASVGDRVTITCRASESLDNYGIRFLTWFQQKPGKAPKLLMYAASNQGSGVPSRFSGSGSGTEFTLTISSLQPDDFATYYCQQTKEVPWSFGQGTKVEVKR
modifications: AuM linker-payload on reduced interchain cysteine; AuM linker-payload (maleimidoacetyl-β-Ala-Val-Ser(Glc)-PAB-MMAU) on reduced interchain cysteines; DAR 8.0 in all
Regarding B9, in test [9], the “IC50, cytotoxicity, HL-60 cells, 5 days” value was found to be 0.583 nM; the “IC50, cytotoxicity, K-562 (low CD33) cells, 3 days” value stood at 241 nM; the “IC50, cytotoxicity, MOLM-13 cells, 3 days” value stood at 0.206 nM.
